Data on two molecules can be found in patent US20200157151A1, “PEPTIDE COMPOUNDS, CONJUGATE COMPOUNDS AND USES THEREOF FOR TREATING INFLAMMATORY DISEASES” (TRANSFERT PLUS, S.E.C., priority 2017, published 2020).

In the test the target is Human recombinant Sortilin chimera protein from R&D Systems (#3154-ST) (human), Q99523. As to the kind of experiment: SPR (Biacore), Sortilin immobilized on CM5 chip, peptide injected. Background: SPR reads the build-up and loss of mass on a sensor chip optically.
Human recombinant Sortilin chimera protein from R&D Systems (#3154-ST) (human), Q99523, sequence (Q99523 78-755, change not shown): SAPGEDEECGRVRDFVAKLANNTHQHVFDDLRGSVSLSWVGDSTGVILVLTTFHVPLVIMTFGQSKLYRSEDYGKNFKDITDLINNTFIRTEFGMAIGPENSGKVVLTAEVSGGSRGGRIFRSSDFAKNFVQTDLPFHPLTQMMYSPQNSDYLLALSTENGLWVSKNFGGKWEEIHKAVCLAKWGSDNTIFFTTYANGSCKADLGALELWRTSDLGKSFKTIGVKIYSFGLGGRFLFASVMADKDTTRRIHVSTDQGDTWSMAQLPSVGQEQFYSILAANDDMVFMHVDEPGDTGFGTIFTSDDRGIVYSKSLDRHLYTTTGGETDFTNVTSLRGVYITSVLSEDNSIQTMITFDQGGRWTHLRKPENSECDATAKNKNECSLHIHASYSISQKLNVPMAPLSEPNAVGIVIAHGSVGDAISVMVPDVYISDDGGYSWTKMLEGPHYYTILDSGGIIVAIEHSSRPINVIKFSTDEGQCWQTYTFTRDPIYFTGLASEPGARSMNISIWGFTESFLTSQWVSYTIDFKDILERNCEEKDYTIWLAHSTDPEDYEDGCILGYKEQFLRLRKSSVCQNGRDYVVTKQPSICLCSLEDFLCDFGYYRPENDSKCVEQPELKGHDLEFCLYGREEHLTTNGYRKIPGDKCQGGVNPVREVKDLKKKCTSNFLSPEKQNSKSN

Square brackets hold non-standard residues; d marks the D form. Ends that are not written are not given here. Nle = CCCC[C@H](N)C(=O)O

As a reminder, the Kd is the free concentration of one partner at which half of the binding sites on the other are occupied at equilibrium, for simple one-to-one binding. Regarding Ac-GVRAKAGVRN[Nle]FKSESY [KBP-106], the Kd is 46 nM.

Consider YKSLRRKAPRWDAPLRDPALRQLL (modifications not checked) [KBP-201], for which the Kd was 3.3 nM.
